One block for each binder: values may come before it.
Tests used:
[1] = target: T1, mCherry-tagged DIC1a (dynein intermediate chain 1, isoform a), wild-type (UniProt Q63100 1-643); experiment: co-IP; COS cells cotransfected with mCherry-tagged DIC1a (wild-type or WD mutants) and HA-tagged KLC1 or KLC2; IP with anti-mCherry; western blotting with anti-DIC and anti-HA; conditions: partners not purified
T1 construct: cytoplasmic dynein intermediate chain 1, neuron-specific isoform DIC1a with both alternatively spliced regions (AS loop 1 with WD1, AS loop 2 with WD2); also called WT DIC1a; source: COS cells, cotransfected, in lysate
T1 sequence (Q63100 whole entry, canonical isoform): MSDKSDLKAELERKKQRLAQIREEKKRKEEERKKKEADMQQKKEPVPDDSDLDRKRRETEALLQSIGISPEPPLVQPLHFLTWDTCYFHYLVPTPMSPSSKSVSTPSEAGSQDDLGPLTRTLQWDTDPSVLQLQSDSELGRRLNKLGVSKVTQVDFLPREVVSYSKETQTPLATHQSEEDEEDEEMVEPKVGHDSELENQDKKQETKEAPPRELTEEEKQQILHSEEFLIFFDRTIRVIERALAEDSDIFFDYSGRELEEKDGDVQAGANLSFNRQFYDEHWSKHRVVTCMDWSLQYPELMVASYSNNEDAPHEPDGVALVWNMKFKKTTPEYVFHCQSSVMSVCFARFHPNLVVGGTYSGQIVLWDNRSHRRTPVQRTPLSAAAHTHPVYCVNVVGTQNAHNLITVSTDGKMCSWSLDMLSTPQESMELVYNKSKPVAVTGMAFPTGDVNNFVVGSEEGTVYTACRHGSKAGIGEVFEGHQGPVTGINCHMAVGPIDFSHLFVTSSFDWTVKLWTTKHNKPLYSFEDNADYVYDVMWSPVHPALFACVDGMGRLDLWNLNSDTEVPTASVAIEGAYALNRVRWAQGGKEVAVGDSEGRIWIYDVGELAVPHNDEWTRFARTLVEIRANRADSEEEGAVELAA

[2] = target: T2, WD1^pept, TAMRA-conjugated 11-amino-acid peptide centered on the first tryptophan motif of DIC1 (TAMRA-conjugated (position not given)); experiment: fluorescence polarisation; TAMRA-conjugated DIC1 tryptophan-motif peptides with purified KLC1 or KLC2 TPR domain; KD values determined at 150 mM NaCl; conditions: both partners purified
T2 construct: 11 residues of dynein intermediate chain 1 centered on the first tryptophan motif (WD1) in AS loop 1; also called WD1 peptide; peptide of the first DIC1 tryptophan motif

fold co-immunoprecipitated relative to KLC1 [1]: 5 fold
B1: HA-tagged KLC2 (kinesin light chain 2) (natural protein, UniProt O88448 1-599, looked up)
chain: MATMVLPREEKLSQDEIVLGTKAVIQGLETLRGEHRALLAPLASHEAGEAEPGSQERCLLLRRSLEAIELGLGEAQVILALSSHLGAVESEKQKLRAQVRRLVQENQWLREELAGTQQKLQRSEQAVAQLEEEKQHLLFMSQIRKLDEMLPQEEKGDVPKDSLDDLFPNEDEQSPAPSPGGGDVAAQHGGYEIPARLRTLHNLVIQYASQGRYEVAVPLCKQALEDLEKTSGHDHPDVATMLNILALVYRDQNKYKDAAHLLNDALAIREKTLGKDHPAVAATLNNLAVLYGKRGKYKEAEPLCKRALEIREKVLGKFHPDVAKQLSNLALLCQNQGKAEEVEYYYRRALEIYATRLGPDDPNVAKTKNNLASCYLKQGKYQDAETLYKEILTRAHEKEFGSVNGENKPIWMHAEEREESKDKRRDRRPMEYGSWYKACKVDSPTVNTTLRTLGALYRPEGKLEAAHTLEDCASRSRKQGLDPASQTKVVELLKDGSGRGHRRGSRDVAGPQSESDLEESGPAAEWSGDGSGSLRRSGSFGKLRDALRRSSEMLVRKLQGGGPQEPNSRMKRASSLNFLNKSVEEPVQPGGRVFLTAAL
notes: kinesin light chain 2; source: COS cells, cotransfected, in lysate

Kd [2]: 7.58 ± 0.61 µM
B2: KLC1^TPR, purified TPR domain of KLC1 (domain or fragment)
chain: YEIPARLRTLHNLVIQYASQGRYEVAVPSCKQALEDLEKTSGHDHPDVATMLNILALVYRDQNKYKDAANLLNDALAIREKTLGRDHPAVAATLNNLAVLYGKRGKYKEAEPLCKRALEIREKVLGKDHPDVAKQLNNLALLCQNQGKYEEVEYYYQRALGIYQTKLGPDRTPNVAKTKNNLASCYLKQGKFKQAETLYKEILTRAHEAEFGSVDDENKPIWMHAEEREECKGKQKDGSAFGEYGGWYKACKVDSPTVTTTLKNLGALYRRQGKFEAAETLEEAAMRSRKQGL

From publication PMC4893161, “The Dynamic Localization of Cytoplasmic Dynein in Neurons Is Driven by Kinesin-1” (Neuron, 2016)
